Changes are numbered by the printed parent chain. Names and notes keep the numbering of the source.
Columns and labels:
[1] = molecular target: T1, human MASP-2 (human, UniProt O00187 16-686); test: cell-based or functional assay
[2] = molecular target: T1, human MASP-2; test: cell-based or functional assay; remark: listed apart in the source
[3] = molecular target: T2, African Green monkey MASP-2 (in African Green monkey serum) (African Green monkey); test: cell-based or functional assay
[4] = molecular target: T3, human MASP-2A (catalytically inactive human MASP-2, Ser618 to Ala618) (human, UniProt O00187 16-686); test: SPR (Biacore), MASP-2A amine coupled to CM5 chip, scFv monomer in solution
T3 construct: the ELISA and Biacore methods say only 'MASP-2A', so a tag may have been present; also called huMASP2A; huMASP-2A
T3 sequence (O00187 16-686 S633A): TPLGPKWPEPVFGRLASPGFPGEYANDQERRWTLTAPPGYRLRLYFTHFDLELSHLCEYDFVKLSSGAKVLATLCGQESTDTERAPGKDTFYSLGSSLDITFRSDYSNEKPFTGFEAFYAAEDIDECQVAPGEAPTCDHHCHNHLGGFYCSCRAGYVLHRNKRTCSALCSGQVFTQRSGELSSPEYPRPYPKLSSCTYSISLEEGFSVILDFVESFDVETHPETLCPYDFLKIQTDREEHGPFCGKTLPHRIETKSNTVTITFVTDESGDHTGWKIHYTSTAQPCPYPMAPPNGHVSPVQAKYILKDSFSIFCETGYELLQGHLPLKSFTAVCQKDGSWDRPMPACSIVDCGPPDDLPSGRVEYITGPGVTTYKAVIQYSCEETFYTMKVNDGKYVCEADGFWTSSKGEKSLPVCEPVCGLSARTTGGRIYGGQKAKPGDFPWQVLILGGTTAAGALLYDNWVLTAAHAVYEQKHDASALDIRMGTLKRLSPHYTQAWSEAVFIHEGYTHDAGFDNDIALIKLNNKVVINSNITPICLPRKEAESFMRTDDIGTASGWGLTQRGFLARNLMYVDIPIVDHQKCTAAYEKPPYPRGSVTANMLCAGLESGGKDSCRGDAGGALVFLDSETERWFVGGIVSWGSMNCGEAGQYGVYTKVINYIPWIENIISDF

[5] = molecular target: T1, human MASP-2; test: cell-based or functional assay; remark: listed apart in the source
[6] = molecular target: T1, human MASP-2; test: cell-based or functional assay; remark: listed apart in the source
[7] = molecular target: T1, human MASP-2; test: cell-based or functional assay; remark: listed apart in the source
[8] = molecular target: T2, African Green monkey MASP-2 (in African …); test: cell-based or functional assay; remark: listed apart in the source
[9] = molecular target: T1, human MASP-2; test: cell-based or functional assay; remark: listed apart in the source
[10] = molecular target: T1, human MASP-2; test: titration ELISA on MASP-2 (10 µg/ml)
[11] = molecular target: T1, human MASP-2; test: cell-based or functional assay; remark: listed apart in the source
[12] = molecular target: T1, human MASP-2; test: selectivity for human MASP-2 over C1s (method not detailed; see FIG. 16)
[13] = molecular target: T2, African Green monkey MASP-2 (in African …); test: cell-based or functional assay; remark: listed apart in the source
[14] = molecular target: rat MASP-2 (in rat serum) (rat, UniProt Q9JJS8 20-685); test: cell-based or functional assay
Chain of rat MASP-2 (in rat serum) (Q9JJS8 other isoform, or with tags, fused parts or gaps limits assumed): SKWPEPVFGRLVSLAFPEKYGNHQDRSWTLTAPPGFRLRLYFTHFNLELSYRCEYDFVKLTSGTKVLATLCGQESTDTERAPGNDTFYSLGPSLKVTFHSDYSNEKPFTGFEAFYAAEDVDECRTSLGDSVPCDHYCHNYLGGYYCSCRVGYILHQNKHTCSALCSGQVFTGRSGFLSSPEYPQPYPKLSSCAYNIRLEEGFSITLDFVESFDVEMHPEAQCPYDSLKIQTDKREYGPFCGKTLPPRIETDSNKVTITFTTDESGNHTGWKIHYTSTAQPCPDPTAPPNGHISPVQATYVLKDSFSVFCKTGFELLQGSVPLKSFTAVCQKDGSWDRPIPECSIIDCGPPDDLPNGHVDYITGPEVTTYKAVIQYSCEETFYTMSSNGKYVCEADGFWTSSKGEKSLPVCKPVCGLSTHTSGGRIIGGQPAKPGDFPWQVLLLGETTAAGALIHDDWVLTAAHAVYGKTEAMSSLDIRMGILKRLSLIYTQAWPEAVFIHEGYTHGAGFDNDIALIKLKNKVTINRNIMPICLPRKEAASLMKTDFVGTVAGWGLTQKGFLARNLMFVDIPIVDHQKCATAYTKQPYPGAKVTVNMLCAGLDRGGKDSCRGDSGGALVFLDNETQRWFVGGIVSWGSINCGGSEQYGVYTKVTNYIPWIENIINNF

T1 sequence (O00187 16-686): as the sequence (O00187 16-686 S633A) above, with A618S counted along it

B1: scFv mother clone 3F22 (scFv)
scFv: QVQLQQSGPGLVKPSQTLSLTCAISGDSVSSNSAAWNWIRQSPSRGLEWLGRTYYRSKWYNDYAVSVKSRITINPDTSKNQFSLQLNSVTPEDTAVYYCARDPFGVPFDIWGQGTMVTVSSKLSGSASAPKLEEGEFSEARVSYVLTQPPSVSVAPGQTARVTCGGNNIRSKNVHWYQQKPGQAPVLVVYDDTDRPSGIPERFSGSNSGNTATLTVSRVEAGDEADYYCQVWDTTTDHVVFGGGTKLTVLAAAGSEQKLISEEDLNSHHHHHH
- Inhibitory activity in Human Serum IC50 (C3b deposition, 0.5% human serum) [1]: 20.6 nM
- Functional IC50, C3b deposition, human serum Exp #1 [2]: 20.6 nM
- Functional IC50, C3b deposition, human serum Exp #2 [2]: 36.7 nM
- Functional IC50, C3b deposition, human serum Exp #3 [2]: 41.4 nM
- Functional IC50, C3b deposition, human serum Exp #4 [2]: 68.8 nM
- Functional IC50, C3b deposition, non-human primate serum Exp #1 [3]: 114 nM
- Functional IC50, C3b deposition, non-human primate serum Exp #2 [3]: 173 nM

B2: scFv mother clone 9P13 (scFv)
scFv: B1 scFv with V145E, P149L, L247V
- Inhibitory activity in Human Serum IC50 (C3b deposition, 0.5% human serum) [1]: 28.9 nM
- Functional IC50, C3b deposition, human serum Exp #1 [2]: 28.9 nM
- Functional IC50, C3b deposition, human serum Exp #2 [2]: 120 nM
- Functional IC50, C3b deposition, human serum Exp #3 [2]: 17.3 nM
- Functional IC50, C3b deposition, human serum Exp #4 [2]: 24.3 nM
- Functional IC50, C3b deposition, non-human primate serum Exp #1 [3]: 99.3 nM
- Functional IC50, C3b deposition, non-human primate serum Exp #2 [3]: 77.1 nM
- Kd [4]: 220 nM

B3: 18L16 mother clone, wild type IgG4 format (antibody, V domains shown)
VH: QVTLKESGPVLVKPTETLTLTCTVSGFSLSNARMGVSWIRQPPGKALEWLAHIFSNDEKSYSTSLKSRLTISKDTSKSQVVLTMTNMDPVDTATYYCARMAILTAGGMDVWGQGTTVTVS
VL: LTQPPSVSASPGQTASITCSGDKLGDKYVSWYQQKPGRSPVLVIYRDTKRPSGIPERFSGSNYGNTATLTISGTQAVDEADYYCQAWDSGSGVFGGGTKVTVLA
- C3b deposition assay in 1% human serum, IC50 [5]: 59 nM
- C3 convertase assay using 1% human serum, IC50 (first experiment) [6]: 33.9 nM
- C3 convertase assay using 1% human serum, IC50 (second experiment) [6]: 22 nM
- C3 convertase assay using 1% human serum, fold improvement of IC50 (scFv to divalent form), first experiment [6]: ~4.7 fold
- C3 convertase assay using 1% human serum, fold improvement of IC50 (scFv to divalent form), second experiment [6]: ~8.7 fold

B4: scFv mother clone 18L16 (scFv)
scFv: QVTLKESGPVLVKPTETLTLTCTVSGFSLSNARMGVSWIRQPPGKALEWLAHIFSNDEKSYSTSLKSRLTISKDTSKSQVVLTMTNMDPVDTATYYCARMAILTAGGMDVWGQGTTVTVSSKLSGSASAPKLEEGEFSEARVSYVLTQPPSVSASPGQTASITCSGDKLGDKYVSWYQQKPGRSPVLVIYRDTKRPSGIPERFSGSNYGNTATLTISGTQAVDEADYYCQAWDSGSGVFGGGTKVTVLAAAGSEQKLISEEDLNSHHHHHH
- Inhibitory activity in Human Serum IC50 (C3b deposition, 0.5% human serum) [1]: 6.1 nM
- C3 Assay IC50 in dilute serum (1%), human serum Exp #1 [7]: 53 nM
- C3 Assay IC50 in dilute serum (1%), human serum Exp #2 [7]: 52 nM
- C3 Assay IC50 in dilute serum (1%), human serum Exp #3 [7]: 97 nM
- C3 Assay IC50 in dilute serum (1%), human serum mean [7]: 67 nM
- C3 Assay IC50, non-human primate serum Exp #1 [8]: 65 nM
- C3 Assay IC50, non-human primate serum Exp #2 [8]: 154 nM
- C3 Assay IC50, non-human primate serum mean [8]: 110 nM
- Functional IC50, C3b deposition, human serum Exp #1 [2]: 6.1 nM
- Functional IC50, C3b deposition, human serum Exp #2 [2]: 96.8 nM
- Functional IC50, C3b deposition, human serum Exp #3 [2]: 52.3 nM
- Functional IC50, C3b deposition, human serum Exp #4 [2]: 53.5 nM
- Functional IC50, C3b deposition, non-human primate serum Exp #1 [3]: 65.6 nM
- Functional IC50, C3b deposition, non-human primate serum Exp #2 [3]: 128 nM
- C3 convertase assay using 1% human serum, IC50 (first experiment) [6]: 160 nM
- C3 convertase assay using 1% human serum, IC50 (second experiment) [6]: 193 nM

B5: 17D20 mother clone, wild type IgG4 format (antibody, V domains shown)
VH: QVTLKESGPVLVKPTETLTLTCTVSGFSLSRGKMGVSWIRQPPGKALEWLAHIFSSDEKSYRTSLKSRLTISKDTSKNQVVLTMTNMDPVDTATYYCARIRAGGIDYWGQGTLVTVSS
VL: QPVLTQPPSVSVSPGQTASITCSGDKLGDKFAYWYQQKPGHSPVLVIYQDNKRPSGIPGRFSGSNSGNTATLTISGTQAMDEADYYCQAWDSSTAVFGTGTKVTVLA
- C4b deposition in 90% human serum, IC50 relative to the C3b deposition assay [9]: ~3 fold
- C3b deposition assay in 1% human serum, IC50 [5]: 22 nM
- C3 convertase assay using 1% human serum, IC50 (first experiment) [6]: 7.39 nM
- C3 convertase assay using 1% human serum, IC50 (second experiment) [6]: 10.3 nM

B6: 17N16 mother clone, wild type IgG4 format (antibody, V domains shown)
VH: QVQLQQSGPGLVKPSQTLSLTCAISGDSVSSTSAAWNWIRQSPSRGLEWLGRTYYRSKWYNDYAVSVKSRITINPDTSKNQFSLQLNSVTPEDTAVYYCARDPFGVPFDIWGQGTMVTVSS
VL: SYVLTQPPSVSVAPGQTARITCGGNNIGSKNVHWYQQKPGQAPVLVVYDDSDRPSGIPERFSGSNSGNTATLTVSRVEAGDEADYYCQVWDTTTDHVVFGGGTKLTVL
- C3b deposition assay in 90% NHS, IC50 [9]: 15 nM
- C3b deposition assay in 1% human serum, IC50 [5]: ~20 nM
- C3 convertase assay using 1% human serum, IC50 (first experiment) [6]: 5.45 nM
- C3 convertase assay using 1% human serum, IC50 (second experiment) [6]: 3.09 nM

B7: scFv mutagenesis clone #35 of 17D20 (scFv)
scFv: QVTLKESGPVLVKPTETLTLTCTVSGFSLSRGKMGVSWIRQPPGKALEWLAHIFSSDEKSYRTSLKSRLTISKDTSKNQVVLTMTNMDPVDTATYYCARIRRGGIDYWGQGTLVTVSSKLSGSASAPKLEEGEFSEARVQPVLTQPPSVSVSPGQTASITCSGDKLGDKFAYWYQQKPGHSPVLVIYQDNKRPSGIPGRFSGSNSGNTATLTISGTQAMDEADYYCQAWDSSTAVFGTGTKVTVLAAAGSEQKLISEEDLNSHHHHHH
notes: the mother scFv entry is used with this change; also called 17D20md#35 (monomer); 17D20md35
- Kd [10]: 1.2 nM

B8: MoAb #1 (OMS641), 17N16m_d17N9 IgG2 (antibody)
heavy: QVQLQQSGPGLVKPSQTLSLTCAISGDSVSSTSAAWNWIRQSPSRGLEWLGRTYYRSKWYNDYAVSVKSRITINPDTSKNQFSLQLNSVTPEDTAVYYCARDPFGVPFDIWGQGTMVTVSSASTKGPSVFPLAPCSRSTSESTAALGCLVKDYFPEPVTVSWNSGALTSGVHTFPAVLQSSGLYSLSSVVTVPSSNFGTQTYTCNVDHKPSNTKVDKTVERKCCVECPPCPAPPVAGPSVFLFPPKPKDTLMISRTPEVTCVVVDVSHEDPEVQFNWYVDGVEVHNAKTKPREEQFNSTFRVVSVLTVVHQDWLNGKEYKCKVSNKGLPAPIEKTISKTKGQPREPQVYTLPPSREEMTKNQVSLTCLVKGFYPSDIAVEWESNGQPENNYKTTPPMLDSDGSFFLYSKLTVDKSRWQQGNVFSCSVMHEALHNHYTQKSLSLSPGK
light: SYELIQPPSVSVAPGQTATITCAGDNLGKKRVHWYQQRPGQAPVLVIYDDSDRPSGIPDRFSASNSGNTATLTITRGEAGDEADYYCQVWDIATDHVVFGGGTKLTVLGQPKAAPSVTLFPPSSEELQANKATLVCLISDFYPGAVTVAWKADSSPVKAGVETTTPSKQSNNKYAASSYLSLTPEQWKSHRSYSCQVTHEGSTVEKTVAPTECS
notes: also called MoAb#1 (IgG2); 17N16_17N9
- Human C3 Assay IC50, 90% human serum [11]: 20 nM
- Human C4 assay IC50, 90% human serum [11]: 30 nM
- Selectivity over C1s [12]: > 5000 fold

B9: MoAb #2 (OMS642), 17N16m_d17N9 IgG4 (antibody)
heavy: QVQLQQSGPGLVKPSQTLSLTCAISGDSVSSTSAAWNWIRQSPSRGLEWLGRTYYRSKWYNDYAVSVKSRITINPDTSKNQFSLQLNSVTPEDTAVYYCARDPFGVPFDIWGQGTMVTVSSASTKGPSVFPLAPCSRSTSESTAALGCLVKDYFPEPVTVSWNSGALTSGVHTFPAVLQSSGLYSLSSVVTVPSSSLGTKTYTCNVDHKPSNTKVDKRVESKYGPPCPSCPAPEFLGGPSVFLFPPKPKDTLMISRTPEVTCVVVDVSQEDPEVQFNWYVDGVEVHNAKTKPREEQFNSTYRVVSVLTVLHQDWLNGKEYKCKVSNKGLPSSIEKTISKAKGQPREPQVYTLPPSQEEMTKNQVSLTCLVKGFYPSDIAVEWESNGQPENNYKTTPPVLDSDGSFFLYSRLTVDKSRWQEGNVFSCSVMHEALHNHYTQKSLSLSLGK
light: B8 light
notes: also called MoAb#2 (IgG4)
- Human C3 Assay IC50, 90% human serum [11]: 3 nM
- Human C4 assay IC50, 90% human serum [11]: 30 nM
- African Green Monkey C3 assay IC50 [13]: 26 nM
- Inhibition of Rat C3b IC50 [14]: 100 nM
- Selectivity over C1s [12]: > 5000 fold

B10: MoAb #3 (OMS643), 17N16m_d17N9 IgG4 (mutant, S228P) (antibody)
heavy: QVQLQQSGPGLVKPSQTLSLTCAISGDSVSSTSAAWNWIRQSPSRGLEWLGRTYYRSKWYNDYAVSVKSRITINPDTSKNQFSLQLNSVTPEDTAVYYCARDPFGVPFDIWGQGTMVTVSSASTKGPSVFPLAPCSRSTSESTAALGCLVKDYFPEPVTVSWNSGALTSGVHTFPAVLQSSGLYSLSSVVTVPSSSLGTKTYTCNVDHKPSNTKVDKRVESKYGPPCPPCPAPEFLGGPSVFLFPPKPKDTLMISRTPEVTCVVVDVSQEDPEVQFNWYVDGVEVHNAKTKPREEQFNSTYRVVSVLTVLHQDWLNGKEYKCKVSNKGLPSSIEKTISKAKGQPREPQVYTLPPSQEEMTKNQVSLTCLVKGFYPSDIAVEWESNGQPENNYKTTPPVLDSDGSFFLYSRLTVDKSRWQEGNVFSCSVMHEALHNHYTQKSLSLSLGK
light: B8 light
notes: also called MoAb#3 (IgG4 mutant)
- Human C3 Assay IC50, 90% human serum [11]: 12 nM
- Human C4 assay IC50, 90% human serum [11]: 30 nM
- Inhibition of Rat C3b IC50 [14]: 200 nM
- Selectivity over C1s [12]: > 5000 fold

B11: MoAb #4 (OMS644), 17D20_3521N11 IgG2 (antibody)
heavy: QVTLKESGPVLVKPTETLTLTCTVSGFSLSRGKMGVSWIRQPPGKALEWLAHIFSSDEKSYRTSLKSRLTISKDTSKNQVVLTMTNMDPVDTATYYCARIRRGGIDYWGQGTLVTVSSASTKGPSVFPLAPCSRSTSESTAALGCLVKDYFPEPVTVSWNSGALTSGVHTFPAVLQSSGLYSLSSVVTVPSSNFGTQTYTCNVDHKPSNTKVDKTVERKCCVECPPCPAPPVAGPSVFLFPPKPKDTLMISRTPEVTCVVVDVSHEDPEVQFNWYVDGVEVHNAKTKPREEQFNSTFRVVSVLTVVHQDWLNGKEYKCKVSNKGLPAPIEKTISKTKGQPREPQVYTLPPSREEMTKNQVSLTCLVKGFYPSDIAVEWESNGQPENNYKTTPPMLDSDGSFFLYSKLTVDKSRWQQGNVFSCSVMHEALHNHYTQKSLSLSPGK
light: QPVLTQPPSLSVSPGQTASITCSGEKLGDKYAYWYQQKPGQSPVLVMYQDKQRPSGIPERFSGSNSGNTATLTISGTQAMDEADYYCQAWDSSTAVFGGGTKLTVLGQPKAAPSVTLFPPSSEELQANKATLVCLISDFYPGAVTVAWKADSSPVKAGVETTTPSKQSNNKYAASSYLSLTPEQWKSHRSYSCQVTHEGSTVEKTVAPTECS
- African Green Monkey C3 assay IC50 [13]: 18 nM

B12: MoAb #5 (OMS645), 17D20_3521N11 IgG4 (antibody)
heavy: not shown
light: B11 light
- African Green Monkey C3 assay IC50 [13]: 16 nM
- Inhibition of Rat C3b IC50 [14]: 500 nM

B13: MoAb #6 (OMS646), 17D20_3521N11 IgG4 mutant (S228P hinge) (antibody)
heavy: not shown
light: B11 light
- African Green Monkey C3 assay IC50 [13]: 14 nM
- Inhibition of Rat C3b IC50 [14]: > 500 nM
